Data as given in the supplement of paper PMC10567573.

B1: MYOZ1 (parent)
chain: FSDSSMDHFQKFLPTVGGQLGTAG

Variants of: B1
Assay: protein stability index of a GFP-peptide fusion (GPS, HEK-293T) (PSI 1-6); higher = more stable
Conditions: c terminus: a fixed tail appended
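Further: lentivirally expressed fusions sorted by FACS into six bins by GFP to DsRed ratio, PSI derived from sequencing read proportions per bin multiplied by bin number.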

Point of comparison: FSDSSMDHFQKFLPTVGSQLGTAG, protein stability index 2.48. Against it:
- FSDSSMDHFQKFLPTVGGQHGTAG — higher, 2.79
- FSDSSMDEFQKFLPTVGGQLGTAG — lower, 2.34
- FSDSSMDYFQKFLPTVGGQLGTAG — lower, 2.08
- FSDYSMDHFQKFLPTVGGQLGTAG — lower, 1.61
- FSDSSNDHFQKFLPTVGGQLGTAG — higher, 2.78
- FSDSSMDHFQKFLPTAGGQLGTAG — higher, 3.19
- FMDSSMDHFQKFLPTVGGQLGTAG — higher, 2.63
- FSDSSMDHFQKFDPTVGGQLGTAG — higher, 3.44
- FSDSSMDHCQKFLPTVGGQLGTAG — higher, 2.92
- FSASSMDHFQKFLPTVGGQLGTAG — lower, 1.96
- FSDSSMDHFQKTLPTVGGQLGTAG — higher, 3.16
- FSDSSMMHFQKFLPTVGGQLGTAG — lower, 1.38
- FSDSSMAHFQKFLPTVGGQLGTAG — lower, 1.38
- FSDSSMDHFCKFLPTVGGQLGTAG — lower, 2.06
- FSDSSMDHFQKFLPWVGGQLGTAG — lower, 1.33
- FSDSSMDHFQKFRPTVGGQLGTAG — higher, 2.92
- FSDSSMDHFTKFLPTVGGQLGTAG — lower, 2.15
- FSDSSMDHFQKFLPTVGGQTGTAG — higher, 2.53
- FPDSSMDHFQKFLPTVGGQLGTAG — higher, 2.54
- FSDSSMDHFHKFLPTVGGQLGTAG — lower, 2.31
- FSDSSMDHFQKFLPTVQGQLGTAG — higher, 2.53
- FSDSSMDHFQKFLPTVGGQLGTAT — lower, 1.89
- FSDSSMDHFQMFLPTVGGQLGTAG — lower, 1.34
- FSDSSMDHFQKFLPTVGGQLYTAG — lower, 1.59
- FSDSDMDHFQKFLPTVGGQLGTAG — higher, 2.58
- FSDSSMDHFQKFLPHVGGQLGTAG — higher, 2.69
- FSDSSMDHFQKFLPTVVGQLGTAG — lower, 2.38
- ISDSSMDHFQKFLPTVGGQLGTAG — higher, 2.92
- FSDNSMDHFQKFLPTVGGQLGTAG — lower, 2.32
- FSDSSMDHFQKFLPTVGTQLGTAG — higher, 2.55
- FSDSSMDHFQKFLTTVGGQLGTAG — lower, 2.25
- FSDSSMDHFQKFLPSVGGQLGTAG — higher, 2.93
- FSDSSMDHFQKFQPTVGGQLGTAG — higher, 3.18
- FSDSSQDHFQKFLPTVGGQLGTAG — higher, 3
- FSDSSMDHFQKFLPTVAGQLGTAG — the same, 2.48
- FSDSSMDHFAKFLPTVGGQLGTAG — lower, 2.33
- FSDSSMDHFQKFLPTVGGDLGTAG — higher, 2.58
- FSDSSMDHFQKFLPTVGGQLGTAR — lower, 2.22
- FSDSSLDHFQKFLPTVGGQLGTAG — lower, 2.29
- RSDSSMDHFQKFLPTVGGQLGTAG — higher, 3.41
- FSDSSMDHFQKFLPTLGGQLGTAG — lower, 2.28
- FSDSSMDHFQKFLPTVGGQLGWAG — lower, 1.43
- FSDSSMDHFQKFLPTIGGQLGTAG — lower, 2.13
- FSDSSMDHGQKFLPTVGGQLGTAG — higher, 4.56
- FSNSSMDHFQKFLPTVGGQLGTAG — lower, 1.67
- FSDRSMDHFQKFLPTVGGQLGTAG — higher, 2.51
- FSDSSMDHFQYFLPTVGGQLGTAG — lower, 2.15
- FSDSSMDHFQKFLQTVGGQLGTAG — lower, 2.38
- FSDSSYDHFQKFLPTVGGQLGTAG — lower, 2.32
- FSDSSMDHFQKFLPTVGGQLDTAG — higher, 2.81
- FSDSSMDHFQKFLPTVWGQLGTAG — lower, 2.03
- FSDSSMDHFQKFLPKVGGQLGTAG — higher, 2.64
- FSDSSMDHFQKFLPTMGGQLGTAG — lower, 2.46
- FSLSSMDHFQKFLPTVGGQLGTAG — lower, 1.55
- FSDSSTDHFQKFLPTVGGQLGTAG — higher, 2.58
- FSDMSMDHFQKFLPTVGGQLGTAG — lower, 1.79
- FSDASMDHFQKFLPTVGGQLGTAG — lower, 2.09
- FSDSSMDHFQKFLPNVGGQLGTAG — lower, 1.7
- FSDSSMDHFQKFLPTKGGQLGTAG — higher, 2.64
- FSDSSMDHFQKFLPTVGGQLTTAG — lower, 2.13
- FSDSSMDHFQKFLPTVGGQLGTPG — lower, 2.22
- FSDSSMDHFQKFLPEVGGQLGTAG — higher, 2.5
- FSDSSMDHFQKFLPTVGGQLGCAG — lower, 1.81
- FSDSSMDHFQKFLPRVGGQLGTAG — lower, 2.08
- FSDSSMDHFQKFLPTVLGQLGTAG — lower, 1.56
- FSDSSMEHFQKFLPTVGGQLGTAG — lower, 2.02
- FSDSSVDHFQKFLPTVGGQLGTAG — lower, 2.23
- FLDSSMDHFQKFLPTVGGQLGTAG — higher, 3.52
- FSDSSMDHFQKFLPTVGGQLGTAI — lower, 1.54
- FSDSSMDHFQKFFPTVGGQLGTAG — higher, 3.09
- FSDSSMDHFIKFLPTVGGQLGTAG — higher, 2.91
- FSDSSMDHFQKFLPTVGGQLGKAG — higher, 3.06
- FSSSSMDHFQKFLPTVGGQLGTAG — lower, 1.97
- FSDSSMDHFQKFLPTVGGQLNTAG — higher, 2.98
- FSDSSMDHFQKFLPTVGGQLGTAC — lower, 1.95
- FSDSSMDHFQKFLPAVGGQLGTAG — higher, 2.64
- FSDSNMDHFQKFLPTVGGQLGTAG — higher, 3.11
- FSDSSMDHFQKFLPTVGGQLGNAG — higher, 2.54
- FSDSSMDRFQKFLPTVGGQLGTAG — lower, 1.61
- FSDSSMDHFQKFLPTVGGQVGTAG — lower, 2.25
- FSDSSMDHFQPFLPTVGGQLGTAG — lower, 2.46
- HSDSSMDHFQKFLPTVGGQLGTAG — higher, 3.88
- FSDSSMDTFQKFLPTVGGQLGTAG — higher, 2.51
- FSDSSMLHFQKFLPTVGGQLGTAG — lower, 1.55
- FSDSSMDHFQKMLPTVGGQLGTAG — higher, 3.11
- FSDSSMDCFQKFLPTVGGQLGTAG — lower, 1.72
- FSDSSMDHFQKFLPTVGGQLGTTG — higher, 2.59
- FSDSSMDHFQKFLPTVGGQLGSAG — lower, 2.19
- FSDSSMDHFQGFLPTVGGQLGTAG — higher, 3.21
- FSDSSMDHFQKFLPTVGGMLGTAG — lower, 2.03
- FSDSSMDNFQKFLPTVGGQLGTAG — the same, 2.48
- FSDSSWDHFQKFLPTVGGQLGTAG — lower, 1.44
- FSDSSMDHMQKFLPTVGGQLGTAG — higher, 3.37
